Data on 25 molecules can be found in patent US7432244 (dated 2008).

Assay [1] addresses T1, IGF-1 (human, UniProt P05019). The assay is described as follows: competition phage ELISA.
Assay [2] has as its target T1, IGF-1. The assay is described as follows: competition, 125I-IGF-1 binding to MCF-7 cells, 37C.
Assay [3] concerns the target T1, IGF-1. As to the kind of experiment: competition, IGF-1 phage vs IGFBP-1.
Assay [4] concerns the target T1, IGF-1. The assay is described as follows: competition, IGF-1 phage vs IGFBP-3.

Bridge positions count the residues as written; N and C are the ends. Ends that are not written are not given here.

T1 sequence (P05019 49-118): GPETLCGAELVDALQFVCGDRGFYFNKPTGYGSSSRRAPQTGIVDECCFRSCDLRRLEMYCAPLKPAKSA

B1: F2-H (peptide)
chain: WRCVDDLGGFQYCWA
A word on the IC50: it is the point on the concentration scale where inhibition reaches its midpoint. In turn, B1 yielded an IC50 in assay [1] of 0.319 µM.

B2: F2-E (peptide)
chain: LGCASDLAGFWYCWA
In assay [1], B2 showed a half-inhibitory concentration (IC50) of 0.554 µM.

B3: F2-N (peptide)
chain: VRCVADAGGFLYCWA
Molecule B3 had an IC50 in assay [1] of 1.18 µM. Against the preceding molecule, the IC50 is about 2.1-fold higher.

B4: F2-I (peptide)
chain: VTCAADALGFLYCWE
In assay [1], B4 had an IC50 of 1.03 µM.

B5: F1-A (peptide)
chain: HPCLESVGALKACMY
Molecule B5 yielded an IC50 in assay [1] of 0.401 µM. This IC50 lies about 2.6-fold lower than the previous one.

B6: F1-G (peptide)
chain: SDCFESVEALRACMY
As for B6, in assay [1], the IC50 is 0.968 µM. This IC50 lies about 2.4-fold higher than the previous one.

B7: F1-H (peptide)
chain: MDCLASVEALKWCMY
In assay [1], B7 displayed an IC50 of 0.147 µM.

B8: F1-2 (peptide)
chain: MDCLASVEALKWCMYG
modifications: disulfide 3-13 (inferred)
Regarding B8, the results for the concentration for half-maximal inhibition (IC50) in assay [2], in assay [3] and in assay [4] were 15.3 µM, 15.5 µM and 9.2 µM, respectively.

B9: F1-B (peptide)
chain: FGCYESVAALRTCMY
Consider B9, for which the IC50 in assay [1] was found to be 0.301 µM. This lies in the sub-micromolar range.

B10: F1-3 (peptide)
chain: FECLTSVEALRGCMYG
modifications: disulfide 3-13 (inferred)
In the case of B10, the concentration for half-maximal inhibition (IC50) stood at 45.7 µM in assay [2], 11.7 µM in assay [3] and 12.8 µM in assay [4].

B11: F2-G (peptide)
chain: ASCVADAGGGGYCWD
For the molecule B11, the IC50 in assay [1] stood at 0.986 µM.

B12: F2-C (peptide)
chain: VKCARDLSGFVYCWA
Take B12: in assay [1], the concentration for half-maximal inhibition (IC50) worked out at 10000 µM.

B13: F2-A (peptide)
chain: GGCASDLAGFRYCWE
In turn, B13 came in with an IC50 in assay [1] of 1.33 µM. This IC50 is about 7500-fold lower than that of the molecule before.

B14: F2-B (peptide)
chain: VRCAYDAGGSRYCWE
The molecule B14 returned an IC50 in assay [1] of 24.6 µM.

B15: F2-M (peptide)
chain: WRCAQDAGGWTYCWA
As to B15, the half-inhibitory concentration (IC50) in assay [1] amounted to 1.04 µM.

B16: F2-J (peptide)
chain: LRCAEDLGGYFYCWA
Molecule B16 had an IC50 in assay [1] of 2.12 µM. This IC50 is about 2-fold higher than that of the molecule before.

B17: F1-C (peptide)
chain: RNCFESVAALRRCMY
For the molecule B17, the IC50 in assay [1] was 0.108 µM.

B18: F1-1 (peptide)
chain: RNCFESVAALRRCMYG
modifications: disulfide 3-13 (inferred)
As for B18, the half-maximal inhibitory concentration (IC50) in assay [2] came to 5.12 µM; in assay [3], 1.4 µM; in assay [4] it was 2.93 µM.

B19: F1-E (peptide)
chain: SDCFGSVEALKMCMY
On to B19, for which, in assay [1], the concentration for half-maximal inhibition (IC50) came out at 0.711 µM. This counts as sub-micromolar.

B20: F2-L (peptide)
chain: ARCARDAGGFYYCWA
Molecule B20 gave a half-inhibitory concentration (IC50) in assay [1] of 4.36 µM.

B21: F1-D (peptide)
chain: HDCFASVEALRRCMY
Take B21: the IC50 in assay [1] came to 0.468 µM.

B22: F2-F (peptide)
chain: FRCAWELGWLYVLGL
For B22, the IC50 in assay [1] was found to be 209 µM. Compared with the last molecule, the IC50 is about 450-fold higher.

B23: F1-F (peptide)
chain: FECLTSVEALRGCMY
B23 showed an IC50 in assay [1] of 0.286 µM.

B24: F2-D (peptide)
chain: VRCAWDLGGRAYCWA
In turn, B24 came in with a half-maximal inhibitory concentration (IC50) in assay [1] of 249 µM.

B25: F2-K (peptide)
chain: YRCATDLAGFSYCWA
Consider B25, for which, in assay [1], the 50% inhibitory concentration (IC50) amounted to 1.45 µM.
